Entries after “also recorded” stand apart in the source; their conditions may differ.
How the values were obtained:
HUVEC = assay: ELISA of VEGF secretion by HUVEC; format: cell-based, human; settings: HUVEC incubated with Gal1
Procedure: (§1) Mouse IFN-γ and IL-10 ELISA sets were from BD Biosciences and mouse IL-17 kit was from R&D. Human soluble VEGF was assessed by ELISA (DY293B; R&D). Soluble Gal1 was determined using an in-house ELISA. Briefly, high binding 96-well microplates (Corning Costar) were coated with capture antibody (2 μg/ml purified rabbit anti-Gal1 polyclonal IgG) in 0.1 M sodium carbonate pH 9.5. After incubation for 18 hours at 4° C., wells were rinsed three times with wash buffer (0.05% Tween-20 in PBS) and incubated for 1 h at RT with blocking solution (2% BSA in PBS). Samples and standards (100 μl) were diluted in 1% BSA and incubated for 18 hours at 4° C. Plates were then washed and incubated with 100 ng/ml biotinylated detection antibody (purified rabbit anti-Gal1 polyclonal IgG) for 1 hour at RT. Plates were rinsed three times before adding horseradish peroxidase-labeled streptavidin (0.33 μg/ml; Sigma) for 30 min at RT. After washing, 100 μl of TMB solution (0.1 mg/ml tetramethylbenzidine and 0.06% H2O2 in citrate-phosphate buffer pH 5) was added to the plates. The reaction was stopped by adding 4N H2SO4. Optical densities were determined at 450 nm in a Multiskan MS microplate reader (Thermo Electron Corporation). A standard curve ranging from 2.5 to 160 ng/ml recombinant Gal1 was run in parallel.

[1] = target: T1, recombinant human glutathione-s-transferase (GST)-Gal1 (human, UniProt P09382 1-135); assay: ELISA on recombinant protein
T1 construct: Immunogen and ELISA antigen; not shown: glutathione-S-transferase (GST) tag
T1 sequence (P09382 whole entry): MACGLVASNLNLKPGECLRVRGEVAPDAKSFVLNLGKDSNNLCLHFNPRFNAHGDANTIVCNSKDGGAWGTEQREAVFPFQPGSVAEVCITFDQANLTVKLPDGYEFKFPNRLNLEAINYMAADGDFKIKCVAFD
Excerpt: (§2) Anti-human Gal1 mAbs were obtained by immunizing B6-Cg-Tg (BCL2)22Wehi-J mice (Jackson Labs, Bar Harbor, Me.) with recombinant human glutathione-s-transferase (GST)-Gal1, generating anti-Gal1 hybridomas with standard methods and purifying the Gal1 monoclonal antibody and class-matched IgG2bλ, control by affinity chromatography. […] A previously described anti-Gal1 polyclonal antibody (Juszczynski et al. (2007) *Proc Natl Acad Sci USA* 104:13134-9) was used as a positive control in all assays.

recombinant His-Gal1 = target: T2, recombinant His-Gal1 (human, UniProt P09382 1-135, limits assumed); assay: ELISA on recombinant protein
T2 construct: not shown: His tag
T2 sequence (P09382 whole entry): as above
Excerpt: as §2

rGal1 = rGal1 (Homo sapiens, UniProt P09382); assay: Anti-Gal1 mAb neutralization of rGal1-induced killing of EBV-specific CTLs; format: cell-based; settings: rGal1 1.25, 2.5 or 5 μM pre-incubated with mAb; 4 h; 7AAD
rGal1, sequence (P09382 whole entry): as above
Procedure: After informed consent, 40-60 ml of peripheral blood from healthy donors was used to generate both EBV-transformed LCLs and EBV-specific CTLs (Straathof et al. (2005) Blood 105:1898-904). In brief, 5×10^6 peripheral blood mononuclear cells (PBMCs) were incubated with concentrated culture supernatant from the marmoset B-lymphoblastoid cell line, B95-8, in the presence of 1 μg/ml cyclosporin A (Sandoz, Vienna, Austria) to establish a LCL. Subsequently, PBMCs (2×10^6 per well of a 24-well plate) were stimulated with irradiated LCLs (at 4,000 rads) at an effector-stimulator (E/S) ratio of 40:1. After 10 days, viable cells were restimulated with irradiated LCLs (at 4:1 E/S ratio). CTLs were expanded by weekly stimulations with autologous irradiated LCLs (at 4:1 E/S ratio) in the presence of recombinant human interleukin-2 (rhIL-2, Proleukin; Chiron Emeryville, Calif.) at concentration of 40 U/ml. After 5 cycles of stimulation, CTLs were tested for EBV specificity and cryopreserved. […]
CTLs were thawed in AIM-V media (Invitrogen) containing 10 U/ml of DNAse I (Roche Applied Science, Indianapolis, Ind.) and rested in culture overnight. […] After 4 hours, the viability of EBV-specific CD8^+ T cells was measured using 7AAD and APC-Cy7-labelled CD8 (BD Biosciences, San Jose, Calif.).

B16 tumors = assay: Anti-tumor immune response in B16 tumor-bearing mice (TDLN restimulation, FACS); format: in vivo, mouse
Procedure: Wild-type KS cells or shRNA clones (5×10^6 cells) were injected subcutaneously into 6- to 8-week old nude mice. Wild-type B16 cells or shRNA clones (2×10^5 cells) were injected into 6- to 8-week old B6 or B6/Rag^−/− mice and tumor development was monitored as described in Rubinstein et al. (2004) Cancer Cell 5, 241-251. Treatments with 8F4F8G7 mAb or control isotype (2.5, 7.5 or 15 mg/kg; i.p. injections every three days) were initiated when tumors reached 100 mm^3. Mice were sacrificed when tumors reached a volume greater than 2 cm^3. At 2 weeks after tumor challenge, lymph node cells (5×10^5 cells/well) were restimulated for 72 h with 1×10^4 irradiated (4,000 rads) B16 cells and were analyzed for proliferation and cytokine production. For adoptive transfer, splenic T cells (5×10^6) from tumor-bearing mice were labeled with CFSE (Molecular Probes) and injected through the tail vein into tumor-bearing recipient mice treated with 8F4F8G7 or control mAb. In related studies, fluorescent beads (3 μm; BD Biosciences), rather than splenic T cells, were injected into tumor-bearing animals treated with 8F4F8G7 or control antibody. CFSE^+ cells or PerCP-labeled beads were analyzed after 24 h or 15 min respectively by flow cytometry in tumor parenchyma and spleen.
For intracellular cytokine staining, TLDN or tumor-infiltrating lymphocytes were made permeable with Perm2 solution (BD Biosciences) and were labeled with fluorescent-labeled monoclonal anti-IFN-γ (XMG1.2; BD Biosciences), anti-IL-17 (TC11-18H10; BD Biosciences), anti-IL-10 (JESS-16E3; eBioscience), anti-CD4 (GK1.5; BD Biosciences), anti-CD8 (H35-17.2; eBioscience) antibodies. Treg cells were determined by using the mouse Treg staining kit (FJK-16s, eBioscience). Cells were analyzed on a FACSAria (BD Biosciences) using a FlowJO software.
as §1

[2] = restimulated ex vivo with B16 cells

Molecule: rGal1: recombinant human galectin-1
- VEGF secretion (HUVEC): lack of effects

B1: anti-Gal1 monoclonal antibody 8F4F8G7 (antibody, V domains shown)
VH: EVQLQQSVAEFVRPGASVRLSCTASGFNIKNTYIHWVRQRPEQGLEWIGKIDPANGNTKYVPEFQGKATMTADTSSNTVYLHLSSLTSEDTAIYYCVDGYYGWYFAVWGTGTTVTVSS
VL: QAVVTQESALTTSPGETVTLTCRSSTGAVTTSNYANWVQEKPDHLFTGLIGATNNRAPGVPARFSGSLIGDKAVLTITGAQTEDEAIYFCALWYRNHFIFGSGTKVTVL
notes: Murine hybridoma mAb (deposit PTA-10535), lambda light chain; also called 14-19 8F4-F8-G7; clone 8F4.8F.67
- binding result [1]: binds
- binding result (recombinant His-Gal1): binds
- rGal1-mediated apoptosis of EBV-specific CD8+ T cells (rGal1): almost completely abrogated; also recorded: dramatically reduced
- B16-specific IL-10 production (B16 tumors; mouse, in vivo): blunted
- proliferation of tumor-draining lymph node cells (B16 tumors; [2]): stimulated
- synthesis and secretion of IFN-γ by tumor-draining lymph node cells (B16 tumors; [2]): stimulated
- synthesis and secretion of IL-17 by tumor-draining lymph node cells (B16 tumors; [2]): stimulated
- frequency of CD4+CD25+FoxP3+ Treg cells in TDLN (B16 tumors; vs isotype control): decline
- number of tumor-infiltrating IFN-γ-producing CD8+ T cells (B16 tumors; vs isotype-treated mice): dramatic increase
